Primed or numbered codes have the meaning given here. Where no end group is shown, it is not given here. [ ]: non-standard residue; d: D form. Dnp″ = dinitrophenol quencher on C-terminus; 2Abz = Nc1ccccc1C(=O)O
Legend:
[1] = Stability of quenched peptide substrate in solution; format: physicochemical; settings: monitored in solution over time, without enzyme
Excerpt: (§1) Development of Prp Assay In order to study Prp enzymology in vitro, an assay was designed using a quenched fluorescent peptide substrate derived from the cleavage motif on L27. The peptide KLNLQFFASKK (GI:15927225; SEQ ID NO:1) was chosen for its content of hydrophilic residues and fluorophore 2-amino benzoic acid (2-abz) was conjugated to the N terminus, with a dinitrophenol (Dnp) quencher conjugated to the C-terminus. The resulting peptide substrate (2abz-KLNLQFFASKK-Dnp; SEQ ID NO:1) was ordered from United Peptide in Herndon, Va. (now United Biosystems). The substrate was initially resuspended to 2 mM with a buffer containing 25 mM Tris pH8 and 300 mM NaCl. Fluorescence was measured using an excitation wavelength of 325 nm and an emission wavelength of 425 nm using a Photon Technology International QuantaMaster steady-state fluorescent spectrometer. Prp was initially purified and analyzed as a His6-SUMO N-terminal fusion protein from plasmid pEW34. His6-SUMO fusions were also made of PrpC34A (pEW39) and PrpC34S (pEW40).
The amino acid sequence of the substrate was selected to maximize its hydrophilic residue content, aiming for the greatest possible peptide solubility. […] The assay allows us to determine Prp kinetics, and the effects of any mutants on the Km or Kcat.

[2] = tested on: S. aureus ribosome assembly (70S ribosomes, 50S subunit); experiment: Polysome analysis (sucrose gradient ribosomal subunit profiles) of over-expression strains; format: cell-based, Staphylococcus aureus; settings: overexpression in S. aureus SA178RI, compared with empty vector
Protocol: Polysome analysis. Overnight cultures of strains for polysome analysis were inoculated into a flask of media containing inducer and appropriate antibiotics (TSB with 2 μg/ml Tet, 30 μg/ml Chl and 1 mM IPTG) beginning at a 1:100 dilution and grown until they reached a Klett reading of 90 or for 4 hours. As noted above, S. aureus expressing Prp C34A will not grow above Klett 50 for over 8 hours, so this strain was grown at a double volume compared to the others so that an equivalent number of cells could be harvested. Cell pellets from at least 100 ml of culture were resuspended in buffer PA (20 mM Tris pH 7.8, 100 mM NH4Cl, 10 mM MgCl2, 6 mM beta mercaptoethanol), broken by bead beating and then cleared by centrifugation for 10 minutes at 13000 rpm at 4° C. The clarified cell lysates were applied to the top of 10-40% sucrose gradients in buffer PA. The gradients were centrifuged for 17 hours at 19000 rpm on an SW-28 rotor at 4° C. Gradients were analyzed for absorbance at 254 nm using a Biocomp Piston Gradient Fractionator with a BIORAD Econo UV Monitor with a Full Scale of 1.0. Data were recorded using DataQ DI-158-UP data acquisition software, as has been previously reported (O'Farrell, 2012). Areas under each peak were calculated using the trapezoid method. […]

[3] = tested on: S. aureus strain SA178RI; experiment: Growth curves of S. aureus strains over-expressing Prp, L27 variants or peptide; format: cell-based, Staphylococcus aureus; settings: T7 plasmid in SA178RI, induced with IPTG, 16 hours at 32° C.; strain still contains native L27 and Prp; compared with wild-type protein or empty vector
Excerpt: Bacterial Culture. All S. aureus strains used in this work are derivatives of the phage-cured, restriction-defective strain RN4220 (Kreiswirth, 1983). The S. aureus expression strain SA178RI carries a T7 RNA polymerase expression cassette under lac operator control (D'Elia, 2006). The plasmid used for expression in SA178RI was pG164, an E. coli-S. aureus shuttle vector carrying the T7 late promoter into which a lac operator, a multiple cloning site, an optimized gram-positive ribosome binding site, and a constitutively expressed copy of the lac repressor gene were introduced (D'Elia, 2006). S. aureus strains were grown in Trypticase Soy Broth (TSB) (Remel, Lenexa, Kans.) or Brain Heart Infusion (BHI) (Remel, Lenexa, Kans.) at 32° C.
For growth curve analysis of mutant over-expression strains, overnight cultures were inoculated directly into media containing inducer and appropriate antibiotics (TSB with 2 μg/ml tetracycline, 30 μg/ml chloramphenicol and 1 mM IPTG) and monitored at OD600 for 16 hours in a 96 well plate format Biotek Microplate reader.
Both L27 and Prp are essential in S. aureus. One common approach is to examine the effects of mutations in essential genes is to over-express mutant allele and assess the resulting phenotypes. […]

[4] = target: Staphylococcus aureus L27 F8A-F9A with C-terminal Myc and His6 tags (un-cleavable), Q2FXT0
[5] = target: T1, 2abz-KLNLQFFASKK-Dnp quenched fluorescent peptide substrate
T1 chain: KLNLQFFASKK

[6] = tested on: peptide substrate 2abz-KLNLQFFASKK-Dnp (L27 cleavage motif); experiment: Quenched fluorescent peptide Prp assay; format: biochemical, Staphylococcus aureus; settings: N-terminal His6-SUMO fusion proteins; excitation 325 nm, emission 425 nm
Excerpt: as §1, with “His6-SUMO fusions were also made of PrpC34A (pEW39) and PrpC34S (pEW40).” left out
In order to test the predictions that our model makes regarding residues important to substrate binding and catalysis and ultimately to search for inhibitors, it was necessary to design a high throughput-capable continuous fluorescent assay. […] In this type of assay, when the substrate is cleaved the fluorophore is released from its quenching partner and fluorescence readings at the fluorophore emission wavelength increase with time. […]

2abz-KLNLQFFASKK-Dnp ([2Abz]KLNLQFFASKK-{Dnp″}) [quenched fluorescent peptide substrate, 2-amino benzoic acid at N terminus, dinitrophenol quencher at C-terminus]
stability of peptide in solution [1]: stable and did not self-cleave or change fluorescence over time

MLKLNLQFF
effect on ribosomal subunit profile [2]: no anomalies
effect on S. aureus growth upon overexpression [3]: pronounced lag in the middle of the exponential growth phase

B1: Staphylococcus aureus Prp (phage-related ribosomal protease), wild type, untagged (protein)
chain: MITVDITVNDEGKVTDVIMDGHADHGEYGHDIVCAGASAVLFGSVNAIIGLTSERPDINYDDNGGHFHIRSVDTNNDEAQLILQTMLVSLQTIEEEYNENIRLNYK
N-terminal cleavage of L27 (Western blot) [4]: this protein with N-terminal residues […] was no longer cleaved by Prp via Western blot

B2: His6-SUMO-Prp N-terminal fusion protein (wild type) (protein)
chain: MITVDITVNDEGKVTDVIMDGHADHGEYGHDIVCAGASAVLFGSVNAIIGLTSERPDINYDDNGGHFHIRSVDTNNDEAQLILQTMLVSLQTIEEEYNENIRLNYK
fluorescence increase in the quenched fluorescent peptide assay [5]: fluorescence increase only occurred in the presence of wild type Prp fusion proteins

B3: wild-type Prp: S. aureus phage-related ribosomal protease, cysteine protease that cleaves L27 (protein)
chain: MITVDITVNDEGKVTDVIMDGHADHGEYGHDIVCAGASAVLFGSVNAIIGLTSERPDINYDDNGGHFHIRSVDTNNDEAQLILQTMLVSLQTIEEEYNENIRLNYK
effect on ribosomal subunit profile [2]: did not deviate significantly from empty vector
fluorescence increase / catalysis with quenched peptide substrate [6]: fluorescence increase only occurred in the presence of wild type Prp
